Reference: the Immune Epitope Database (IEDB)

target: HLA-A*01:01; test: IEDB peptide-MHC binding, purified MHC/competitive/radioactivity; filed as Kd, often an IC50 or EC50 that approximates it; ≥ and ≤ were set here for values at or beyond the usual limits of such assays; conditions: source organism: Homo sapiens

Sequence | Kd [µM]
IFATCLGLSY | 12.5
KMVELVHFLL | ≥ 36
KVAELVHFL | ≥ 36
LGSVVGNWQY | 12.5
LLGDNQIMPK | ≥ 36
LVFGIELMEV | ≥ 36
LVTCLGLSY | 2.98
LYIFATCLGL | ≥ 36
NYPLWSQSY | ≥ 36

target: HLA-A*01:01; test: IEDB peptide-MHC binding, purified MHC/competitive/radioactivity; ≥ and ≤ were set here for values at or beyond the usual limits of such assays; conditions: source organism: Homo sapiens

Sequence | IC50 [µM]
FATCLGLSY | 0.658
